The record followed here is the supplement of paper PMC9170038.

The series concerns MS2 coat protein. In words: apparent KD of MS2 coat protein; higher = weaker reporter binding. The following applies: Eterna round: R107. The gist of the method:
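Designed RNA switches, transcribed on-chip from Illumina sequencing clusters, were titrated with SNAP-549-labelled MS2 coat protein from 0.7 or 1.5 nM to 3 µM in twofold steps. The solution was 100 mM Tris-HCl pH 7.5, 80 mM KCl, 4 mM MgCl2, with constant ligand or without it. Apparent KD is the median over each design's normalised cluster binding-curve fits.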

The mark [1] stands for this setting: input ligand: theophylline 20 uM.
The mark [2] stands for this setting: input ligand: tryptophan 2.4 mM.
Where [3] appears, read: input ligand: theophylline 2 mM.

For “AAUAACAUGAGGAUCACCCAUGUAAAAGAUACCAGAUGCAUGAUGAUCCCUUGGCAGCUUAAACGCGAUUGGAAACAAUCGCGAA [Mat - Same State Theophlline A - Mod of Eli - D11]”, the “apparent KD of MS2 coat protein” value (input ligand: arginine 13.2 mM) came out at 37.1 nM, the “apparent KD of MS2 coat protein” value under setting [1] worked out at 40 nM and the “apparent KD of MS2 coat protein” value under setting [2] was found to be 38.3 nM.
For the sequence “GGCACAUAGUCGGCCGCCACUAGUGGGAAAUGGGAGAACAUGAGGAUCACCCAUGUUGCGUAGCCUAGGACCGGGACUAUGUGCC [Hippopotamus]”, the “apparent KD of MS2 coat protein” value reads like this: (input ligand: arginine 13.2 mM) 29.1 nM; (input ligand: none) 30.1 nM; under setting [1], 37.6 nM; under setting [3], 33.2 nM; under setting [2], 35 nM.
For the sequence “AAUUUAUGGUUCUUGAUGUAGUAUCUAUUUCGAGGACCGGUACGGCCGCCACUCGUAAAUUACAUGAGGAUCACCCAUGUUAGCU [JR_ExcTryptoA_Sub011]”, the “apparent KD of MS2 coat protein” value is 18.8 nM (input ligand: arginine 13.2 mM), 27 nM under setting [1] and 28.8 nM under setting [3].
Take “ACUUUGUCGGGUGAUACCAGCCUCGGCACAUCUCGUGCCGAACAUGAGGAUCACCCAUGUGGCCCUUGGCAGCACAUGACAACUC [Quceanteri]”: the “apparent KD of MS2 coat protein” value reads like this: (input ligand: arginine 13.2 mM) 145 nM; under setting [1], 637 nM; under setting [2], 608 nM.
Regarding “AGCCGAACCACGGCCGCCACUGUAGACGUGACGAAAGUCGCGUCAACAUGAGGAUCACCCAUGUACAGGACCGGGUGGUCCGGCA [Omei Trp B SS A v2]”, the “apparent KD of MS2 coat protein” value was 9.09 nM (input ligand: arginine 13.2 mM); 8.68 nM (input ligand: none); 11.2 nM under setting [1]; 8.09 nM under setting [3]; 6.75 nM under setting [2].
Taken in the same sequence, the figures for “GGGUGCGGGCGAAGGAGCGUGAAGACAUGAGGAUCACCCAUGUAGAGGCCCGAACAGGGUUCGCAGGUAGGUCGCGCGCGUGCCC [#1 Same State - Arginine B Attempt #5 (HarryS)]” were 11.8 nM, 15.6 nM, 20.4 nM, 18.6 nM and 16.3 nM.
Turning to “ACGAACGAUAGCGAUACCAGACGUACAUGAGGAUCACCCAUGUUUUGGGUAAGGUUAAUAGUCCCUUGGCAGCGCUUUAAGUUCG [#10 Exclusion-TheophyllineB]”, the “apparent KD of MS2 coat protein” value runs as follows: (input ligand: arginine 13.2 mM) 50.5 nM; under setting [1], 89.7 nM; under setting [2], 59 nM.
In the case of “AGACAUGAGGAUCACCCAUGUAGCACGGAUACCAGAUCCAGAUGUAUCCCUUGGCAGCUGUGGUACAGCGUUGCAACGCUCCUAG [Exclusion - Theophylline A (Freestyle 17)]”, the “apparent KD of MS2 coat protein” value came out at 17.6 nM (input ligand: arginine 13.2 mM), 28.5 nM under setting [1] and 18.1 nM under setting [2].
For the sequence “GUCAGUGACAGAAGGAGCGACAUGAGGAUCACCCAUGUCUCCCGUUAUGGGAGUUCCUUAGGUCAGGUAGGUCGCUGUCACUGAC [#1 Exclusion - Arginine B Attempt #30 (Inspired by Omei)]”, the “apparent KD of MS2 coat protein” value stood at 227 nM (input ligand: arginine 13.2 mM); 215 nM (input ligand: none); 137 nM under setting [1]; 284 nM under setting [3]; 194 nM under setting [2].
Consider “ACCUCACUCUCUGAUACCAGCUAACAACAUGAGGAUCACCCAUGUCAGACUUGUAUUGAUAGCCCUUGGCAGCAGAGGUAACUGC [#16 Exclusion-TheophyllineB]”, for which the “apparent KD of MS2 coat protein” value by setting is: (input ligand: arginine 13.2 mM) 13.9 nM; under setting [1], 21.2 nM; under setting [2], 16.8 nM.
With “AAAUAAAUACAUGAGGAUCACCCAUGUGAAGGAGCGCGCGUUAGCGCAGGUAGGUCGCACAUGAACUCCAAAGUGCAAAAGCACA [MAT - Exclusion Arginine A - Mod of Eli - D8]”, the “apparent KD of MS2 coat protein” value by setting is: (input ligand: arginine 13.2 mM) 19.7 nM; (input ligand: none) 22.8 nM; under setting [1], 25.1 nM; under setting [3], 20.5 nM; under setting [2], 24.7 nM.
As for “UAGGCACGAGACAUGAGGAUCACCCAUGUUCGAGGACCGGUACGGCCGCCACUCGGUGGACUCAUGGUAAAGCCGGUGAGCCAAU [AK 1.2 SS Trypt (A)]”, the “apparent KD of MS2 coat protein” value is, setting by setting: (input ligand: arginine 13.2 mM) 16.7 nM; (input ligand: none) 17.1 nM; under setting [1], 28.1 nM; under setting [3], 15.8 nM; under setting [2], 51.6 nM.
Turning to “GGCUGUUGCGAUUUGAAGCGGCAGCGUGAUACCAGAUGUAAGAGCGUCCCUUGGCAGCACGUUUACAUGAGGAUCACCCAUGUCA [Xerema]”, the “apparent KD of MS2 coat protein” value was determined as 56.6 nM (input ligand: arginine 13.2 mM), 123 nM under setting [1] and 192 nM under setting [2].
Turning to “GAGCUGAUGUAGAGUGGAUAUCCUUGAGAUACCAGUACAGAAAUGUACCCUUGGCAGCUCUUCUUUACAUGAGGAUCACCCAUGU [Ex Theophylline A 24]”, the “apparent KD of MS2 coat protein” value by setting is: (input ligand: arginine 13.2 mM) 12.8 nM; under setting [1], 14.3 nM; under setting [2], 12.5 nM.
As to “UGUCGGCCGCCAGGAAAUGGUGGCCGACAUCGAGGACCGGUACGGCCGCCACUCGGUCGUACAUGAGGAUCACCCAUGUCGGUGA [SameState-Tryptophan_A Attempt #10 (HarryS)]”, the “apparent KD of MS2 coat protein” value turned out to be 72.9 nM (input ligand: arginine 13.2 mM); 496 nM (input ligand: none); 508 nM under setting [1]; 942 nM under setting [3]; 1200 nM under setting [2].
In the case of “AGAGGUGCAACAGAUACCAGUCUACCGUACCUCAGAGAACAUGAGGAUCACCCAUGUAUAGACCCUUGGCAGCUGAUGUUAUUCA [Theo B Ex t3]”, the “apparent KD of MS2 coat protein” value runs as follows: (input ligand: arginine 13.2 mM) 25.7 nM; under setting [1], 36.7 nM; under setting [2], 22.4 nM.
As for “CUCAUCCACGCGGCCGCCACUAUUUUUAGGUGUGGGUGUGACGUAUUACAUGAGGAUCACCCAUGUAGGACCGGGCGUGGAUGAG [Walrus]”, the “apparent KD of MS2 coat protein” value is, setting by setting: (input ligand: arginine 13.2 mM) 117 nM; under setting [1], 414 nM; under setting [3], 491 nM.
Regarding “CCAUAAGUAACUGAUACCAGUGUACUGACAUGAGGAUCACCCAUGUUGGGUUUUGUUGUACACCCUUGGCAGCAGAAUCUUGUGG [AstrosExyTheB#16]”, the “apparent KD of MS2 coat protein” value reads like this: (input ligand: arginine 13.2 mM) 43.9 nM; under setting [1], 70.1 nM; under setting [2], 54.3 nM.
“GGUUUCGCGGGCGAUACCAGCUUGAUCGUACUGGCCUGGUACAUGAGGAUCACCCAUGUAAGCCCUUGGCAGCGCGCGCGAGACC [#1 Exclusion - Theophylline B Attempt #4 (HarryS)]”: the “apparent KD of MS2 coat protein” value by setting is: (input ligand: arginine 13.2 mM) 13.3 nM; under setting [1], 16.9 nM; under setting [2], 11.7 nM.
Consider “CUAAGAGUUACGGCCGCCACUAGUUGGGAUCCGCCCGUAAAAUCACAUGAGGAUCACCCAUGUCCUAGGACCGGGUAAUCGCAUU [theeternabot_sameState_MS2_Trp_B_31]”, for which the “apparent KD of MS2 coat protein” value (input ligand: arginine 13.2 mM) is 110 nM, the “apparent KD of MS2 coat protein” value under setting [1] was 616 nM and the “apparent KD of MS2 coat protein” value under setting [3] came out at 499 nM.
Take “UGAUCCUACAGAGAUACCAGUGCCACUGAGUGACCAGACACAUGAGGAUCACCCAUGUAACACCCUUGGCAGCUCAACUAAAGGG [Same State Theophylline B GF17]”: the “apparent KD of MS2 coat protein” value runs as follows: (input ligand: arginine 13.2 mM) 16.2 nM; under setting [1], 20.5 nM; under setting [2], 21.4 nM.
Taken in the same sequence, the figures for “AGCCCUGUGCUAGAUACCAGCUACAUGAGGAUCACCCAUGUGCGUCAGAAAUGACUGUGUAGCCCUUGGCAGCUACUCGCAUGUA [Exclusion - Theophylline B (Freestyle 6)]” were 13 nM, 20.2 nM and 13.5 nM.
The like results for “GCCAGACAUGAGGAUCACCCAUGUAGCGAUACCAGCUCUGUUGUGAGCCCUUGGCAGCGCACUGGCAUCGCGGGUGAUCCUGCAU [(T)''-(Ms2)-(Theo)-(T)'-(M)'-(M)''_Design3]” were, in that order, 15.1 nM, 137 nM and 33.1 nM.
As for “ACAUUUAACUGAAGGAGCGUGAUUUCUACAACAUGAGGAUCACCCAUGUUCAUUACUCAUUCACAGGUAGGUCGCAGACUAAUGA [JR_SSArginiB_Sub031]”, the “apparent KD of MS2 coat protein” value by setting is: (input ligand: arginine 13.2 mM) 20.9 nM; (input ligand: none) 20.2 nM; under setting [1], 26.8 nM; under setting [3], 23.5 nM; under setting [2], 21 nM.
Taken in the same sequence, the figures for “GCUAGUGGCAGAAGGAGCGACAUUUUAAGUGGUCGAUACAUGAGGAUCACCCAUGUACUAUGUCAGGUAGGUCGCUGCCACUAGC [EAB NP+V+V2 #3 +-Same Structure]” were 39.1 nM, 34.8 nM, 38.8 nM, 42.9 nM and 34 nM.
In the case of “CUGCUACAUACGGCCGCCACUUUAAACAUGAGGAUCACCCAUGUACGGAAGGGUGGUAAAUGUUAAAGGACCGGGUAUGUAGCAA [Tryp B Ex t1]”, the “apparent KD of MS2 coat protein” value (input ligand: arginine 13.2 mM) was determined as 64.4 nM, the “apparent KD of MS2 coat protein” value under setting [1] is 296 nM and the “apparent KD of MS2 coat protein” value under setting [3] was determined as 293 nM.
On to “UUUUACGGCGAUCUGGGUUUACCAGAUCGGCGAGGACCGGUACGGCCGCCACUCGUGUUUCUUUGACAUGAGGAUCACCCAUGUA [whbob_SS_trypto A_f1]”, for which the “apparent KD of MS2 coat protein” value (input ligand: arginine 13.2 mM) was 28.9 nM, the “apparent KD of MS2 coat protein” value under setting [1] amounted to 42.5 nM and the “apparent KD of MS2 coat protein” value under setting [3] came out at 39.2 nM.
For the sequence “AGCGGCUCGAAAGAGUCGCACUCAUGUGAAGGAGCGCCCGUUAGGGCAGGUAGGUCGCACAUGAGGAUCACCCAUGUACCUUCUA [MAT - Exclusion Arginine A - Mod of Eli - D19]”, the “apparent KD of MS2 coat protein” value turned out to be 53.1 nM (input ligand: arginine 13.2 mM); 196 nM (input ligand: none); 282 nM under setting [1]; 312 nM under setting [3]; 140 nM under setting [2].
“AGCCGGAUUACGGCCGCCACUGUAGACGUGACGAAAGUCGCGUCAACAUGAGGAUCACCCAUGUACAGGACCGGGUGGUCAGGCG [Omei Tryp B SS A v4]”: the “apparent KD of MS2 coat protein” value (input ligand: arginine 13.2 mM) amounted to 108 nM, the “apparent KD of MS2 coat protein” value under setting [1] is 432 nM and the “apparent KD of MS2 coat protein” value under setting [3] was determined as 464 nM.
Consider “UAAUAAAUAAAUCCAAGGUGAAGGUCAGAUACCAGCCAGAUAACUGGCCCUUGGCAGCUGAAUAAUCAUGAGGAUCACCCAUGAA [TheoAS 25 #OpenEnded #MS2Late #AlternativeMS2]”, for which the “apparent KD of MS2 coat protein” value is 17.2 nM (input ligand: arginine 13.2 mM); 22.8 nM (input ligand: none); 24.7 nM under setting [1]; 63.9 nM under setting [3]; 19.5 nM under setting [2].
Consider “AUCCACAGCCGAAGGAGCGCUAGAAGAUGACAUGAGGAUCACCCAUGUGUGUGAUGUGGCUAGCAGGUAGGUCGCGGAGUGGAUU [Exclusion - Arginine B (Freestyle 12)]”, for which the “apparent KD of MS2 coat protein” value (input ligand: arginine 13.2 mM) turned out to be 31.6 nM; the “apparent KD of MS2 coat protein” value (input ligand: none) amounted to 24.3 nM; the “apparent KD of MS2 coat protein” value under setting [1] came to 35.5 nM; the “apparent KD of MS2 coat protein” value under setting [3] is 26.2 nM; the “apparent KD of MS2 coat protein” value under setting [2] is 24.7 nM.
For the sequence “GUUCGUCCUACGGCCGCCACUAAAACACAUGAGGAUCACCCAUGUUAGUAUCCUGGCUGGUGUGAUAGGACCGGGUAGGGAAGAA [theeternabot_exclusion_MS2_Trp_B_14]”, the “apparent KD of MS2 coat protein” value was determined as 11 nM (input ligand: arginine 13.2 mM), 13.6 nM under setting [1] and 10.8 nM under setting [3].
